# System: S-SMase secretion by HUVECs
# Assay: Cytokine regulation of S-SMase secretion by HUVECs (SMase activity in conditioned media)
# Type: cell-based, human
# Settings: 18 h, IL-1β 5 ng/ml, interferon-γ 1000 units/ml
# Protocol: Conditioned media (FIG. 23A) and cell homogenates (FIG. 23B) from these cells were then assayed for SMase activity in the presence or absence of 0.1 mM ZnCl2, respectively.
# The cells were then washed 3 times with PBS and incubated for 24 h in 1 ml fresh serum-free media containing 0.2%6 BSA. This 24-h conditioned medium was collected for SMase assays.
# Harvesting of Cells and Conditioned Media—Following the incubations described above and in the figure legends, cells were placed on ice and the serum-free conditioned media was removed. The cells were washed two times with ice-cold 0.25 M sucrose and scraped into 0.3 ml and 3.0 ml of this sucrose solution per 35-mm and 100-mm dishes, respectively. Unless indicated otherwise, the scraped cells were disrupted by sonication on ice using three 5-second bursts (Branson 450 Sonifier), and the cellular homogenates were assayed for total protein by the method of Lowry et al. (22) and for SMase activity as described below. The conditioned media were spun at 800×g for 5 min to pellet any contaminating cells and concentrated six-fold using a Centriprep 30 (Amicon; Beverly, Mass.) concentrator (molecular weight cut off=30,000).
# Typically, our assay reactions contained approximately 20 μg of cellular homogenate protein and a volume of conditioned media derived from a quantity of cells equivalent to approximately 50 μg of cellular protein.
substance,measurement,value
IL-1β: human recombinant interleukin-1β,increase of S-SMase activity / secretion (conditioned media),~3 fold
